Patent publication US20180155451A1 (published 2018)

B1: GpH7-A5/GpH7-B3 variant L328_03V/GpL16-k0 (antibody, human IgG1, kappa)
heavy 1: not shown
heavy 2: not shown
light: DIVMTQSPLSLPVTPGEPASISCQASESLVHSNRNTYLHWYLQKPGQSPQLLIYKVSNRFSGVPDRFSGSGSGTDFTLKISRVEAEDVGVYYCSQNTHVPPTFGQGTKVEIERTVAAPSVFIFPPSDEQLKSGTASVVCLLNNFYPREAKVQWKVDNALQSGNSQESVTEQDSKDSTYSLSSTLTLSKADYEKHKVYACEVTHQGLSSPVTKSFNRGEC
notes: Heterodimerized IgG1; alteration in one H chain only; also called He Ab
B2: GpH7-A5/GpH7-B3 variant Y296_11K/GpL16-k0 (antibody, human IgG1, kappa)
heavy 1: not shown
heavy 2: not shown
light: B1 light
notes: as for B1
B3: GpH7-A5/GpH7-B3 variant Y296_18N/GpL16-k0 (antibody, human IgG1, kappa)
heavy 1: not shown
heavy 2: not shown
light: B1 light
notes: as for B1
B4: GpH7-A5/GpH7-B3 variant Y296_14T/GpL16-k0 (antibody, human IgG1, kappa)
heavy 1: not shown
heavy 2: not shown
light: B1 light
notes: as for B1
B5: GpH7-A5/GpH7-B3 variant N325_06M/GpL16-k0 (antibody, human IgG1, kappa)
heavy 1: not shown
heavy 2: not shown
light: B1 light
notes: as for B1
B6: GpH7-A5/GpH7-B3 variant N325_14T/GpL16-k0 (antibody, human IgG1, kappa)
heavy 1: not shown
heavy 2: not shown
light: B1 light
notes: as for B1
B7: GpH7-A5/GpH7-B3 variant Y300_10E/GpL16-k0 (antibody, human IgG1, kappa)
heavy 1: not shown
heavy 2: not shown
light: B1 light
notes: as for B1
B8: GpH7-A5/GpH7-B3 variant S298_08L/GpL16-k0 (antibody, human IgG1, kappa)
heavy 1: not shown
heavy 2: not shown
light: B1 light
notes: as for B1
B9: GpH7-A5/GpH7-B3 variant Y296_16H/GpL16-k0 (antibody, human IgG1, kappa)
heavy 1: not shown
heavy 2: not shown
light: B1 light
notes: as for B1
B10: GpH7-A5/GpH7-B3 variant N325_08L/GpL16-k0 (antibody, human IgG1, kappa)
heavy 1: not shown
heavy 2: not shown
light: B1 light
notes: as for B1
B11: GpH7-A5/GpH7-B3 variant N325_05P/GpL16-k0 (antibody, human IgG1, kappa)
heavy 1: not shown
heavy 2: not shown
light: B1 light
notes: as for B1
B12: GpH7-A5/GpH7-B3 variant N325_02A/GpL16-k0 (antibody, human IgG1, kappa)
heavy 1: not shown
heavy 2: not shown
light: B1 light
notes: as for B1
B13: GpH7-A5/GpH7-B3 variant S324_05P/GpL16-k0 (antibody, human IgG1, kappa)
heavy 1: not shown
heavy 2: not shown
light: B1 light
notes: as for B1
B14: GpH7-A5/GpH7-B3 variant P271_09D/GpL16-k0 (antibody, human IgG1, kappa)
heavy 1: not shown
heavy 2: not shown
light: B1 light
notes: as for B1
B15: GpH7-A5/GpH7-B3 variant Y296_01G/GpL16-k0 (antibody, human IgG1, kappa)
heavy 1: not shown
heavy 2: not shown
light: B1 light
notes: as for B1
B16: GpH7-A5/GpH7-B3 variant L328_05P/GpL16-k0 (antibody, human IgG1, kappa)
heavy 1: not shown
heavy 2: not shown
light: B1 light
notes: as for B1

Each binder was assayed against T1, FcγRIIb extracellular domain with C-terminal His tag (human, UniProt P31994 43-217) (assay: SPR (Biacore), relative binding).
T1 construct: extracellular domain; also called FcgRIIb; 2b; not shown: His tag attached to the C terminus
T1 sequence (looked up): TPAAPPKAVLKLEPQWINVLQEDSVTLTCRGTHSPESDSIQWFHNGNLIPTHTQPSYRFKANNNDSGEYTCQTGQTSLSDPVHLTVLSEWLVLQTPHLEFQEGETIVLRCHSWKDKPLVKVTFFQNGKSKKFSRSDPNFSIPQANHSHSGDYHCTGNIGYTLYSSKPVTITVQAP
Experimental: (§1) Analysis of interaction between objective antibody and the FcγR was carried out using Biacore T100 (GE Healthcare). HBS-EP+ (GE Healthcare) was used as the running buffer, and the measurement temperature was set to 25° C. Chips produced by immobilizing the antigen peptide by the amine coupling method to a Series S Sencor Chip CM5 (GE Healthcare), or alternatively, chips produced by allowing preliminarily biotinylated antigen peptides to interact with and immobilize onto a Series S Sensor Chip SA (certified) (GE Healthcare) were used. Antibodies of interest were captured onto an antigen peptide-immobilized chip, and allowed to interact to each FcγR diluted with running buffer. To regenerate and repeatedly use the chip, the antibodies captured on the chip were washed off by reacting 10 mM glycine-HCl, pH 1.5.
(§2) The FcγR-binding activity of each antibody was assessed primarily using as an indicator the FcγR-binding activity and dissociation constant for FcγR.

Compared with B1, B2 is lower in “He/Con_2b (IIb binding)” value: 126 % of GpH7-A5/GpH7-B3/GpL16-k0 (=100) for the first, 72.8 % of GpH7-A5/GpH7-B3/GpL16-k0 (=100) for the second.

First: B3
Second: B4
The “He/Con_2b (IIb binding)” value of the first is higher: 91.5 % of GpH7-A5/GpH7-B3/GpL16-k0 (=100) for the first, 88.2 % of GpH7-A5/GpH7-B3/GpL16-k0 (=100) for the second.

Going from B5 to B6, the “He/Con_2b (IIb binding)” value falls from 217 % of GpH7-A5/GpH7-B3/GpL16-k0 (=100) to 91.6 % of GpH7-A5/GpH7-B3/GpL16-k0 (=100).

Going from B7 to B8, the “He/Con_2b (IIb binding)” value falls from 134 % of GpH7-A5/GpH7-B3/GpL16-k0 (=100) to 108 % of GpH7-A5/GpH7-B3/GpL16-k0 (=100).

First: B9
Second: B10
The “He/Con_2b (IIb binding)” value of the first is lower: 92.2 % of GpH7-A5/GpH7-B3/GpL16-k0 (=100) for the first, 197 % of GpH7-A5/GpH7-B3/GpL16-k0 (=100) for the second.

First: B11
Second: B12
The “He/Con_2b (IIb binding)” value of the first is lower: 26 % of GpH7-A5/GpH7-B3/GpL16-k0 (=100) for the first, 64.4 % of GpH7-A5/GpH7-B3/GpL16-k0 (=100) for the second.

Compared with B13, B14 is higher in “He/Con_2b (IIb binding)” value: 94.7 % of GpH7-A5/GpH7-B3/GpL16-k0 (=100) for the first, 120 % of GpH7-A5/GpH7-B3/GpL16-k0 (=100) for the second.

Compared with B15, B16 is lower in “He/Con_2b (IIb binding)” value: 79.3 % of GpH7-A5/GpH7-B3/GpL16-k0 (=100) for the first, 65.1 % of GpH7-A5/GpH7-B3/GpL16-k0 (=100) for the second.

These binders were tested against T2, FcγRIIIa extracellular domain with C-terminal His tag (human, UniProt P08637 17-208) (assay: SPR (Biacore), relative binding).
T2 construct: extracellular domain; also called FcgRIIIa; 3a; not shown: His tag attached to the C terminus
Experimental: as §1, §2

T2 sequence (P08637 17-208): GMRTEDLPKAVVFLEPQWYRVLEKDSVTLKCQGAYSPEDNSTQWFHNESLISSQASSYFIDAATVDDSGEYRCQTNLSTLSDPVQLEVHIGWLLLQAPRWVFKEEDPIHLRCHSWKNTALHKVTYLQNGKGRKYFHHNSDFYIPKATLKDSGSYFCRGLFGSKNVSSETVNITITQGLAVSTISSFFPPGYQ

First: B1
Second: B2
The “He/Con_3a (IIIa binding)” value of the first is higher: 78.7 % of GpH7-A5/GpH7-B3/GpL16-k0 (=100) for the first, 56.7 % of GpH7-A5/GpH7-B3/GpL16-k0 (=100) for the second.

First: B3
Second: B4
The “He/Con_3a (IIIa binding)” value of the first is higher: 72.1 % of GpH7-A5/GpH7-B3/GpL16-k0 (=100) for the first, 64.5 % of GpH7-A5/GpH7-B3/GpL16-k0 (=100) for the second.

Going from B5 to B6, the “He/Con_3a (IIIa binding)” value rises from 31.4 % of GpH7-A5/GpH7-B3/GpL16-k0 (=100) to 39.4 % of GpH7-A5/GpH7-B3/GpL16-k0 (=100).

First: B7
Second: B8
The “He/Con_3a (IIIa binding)” value of the first is higher: 104 % of GpH7-A5/GpH7-B3/GpL16-k0 (=100) for the first, 73.5 % of GpH7-A5/GpH7-B3/GpL16-k0 (=100) for the second.

Going from B9 to B10, the “He/Con_3a (IIIa binding)” value falls from 73.4 % of GpH7-A5/GpH7-B3/GpL16-k0 (=100) to 33.3 % of GpH7-A5/GpH7-B3/GpL16-k0 (=100).

First: B11
Second: B12
The “He/Con_3a (IIIa binding)” value of the first is lower: 10.2 % of GpH7-A5/GpH7-B3/GpL16-k0 (=100) for the first, 30.5 % of GpH7-A5/GpH7-B3/GpL16-k0 (=100) for the second.

Compared with B13, B14 is higher in “He/Con_3a (IIIa binding)” value: 65.5 % of GpH7-A5/GpH7-B3/GpL16-k0 (=100) for the first, 93.1 % of GpH7-A5/GpH7-B3/GpL16-k0 (=100) for the second.

Compared with B15, B16 is lower in “He/Con_3a (IIIa binding)” value: 54.5 % of GpH7-A5/GpH7-B3/GpL16-k0 (=100) for the first, 40.5 % of GpH7-A5/GpH7-B3/GpL16-k0 (=100) for the second.

Each binder was assayed against T2, FcγRIIIa extracellular domain with … (assay: SPR (Biacore); He/Con_3a divided by He/Con_2b (reference: binding to FcγRIIb)).
Experimental: as §1, §2

Going from B1 to B2, the “He_3a/2b (IIIa/IIb)” value rises from 0.63 ratio to 0.78 ratio.

Compared with B3, B4 is lower in “He_3a/2b (IIIa/IIb)” value: 0.79 ratio for the first, 0.73 ratio for the second.

Going from B5 to B6, the “He_3a/2b (IIIa/IIb)” value rises from 0.14 ratio to 0.43 ratio.

Going from B7 to B8, the “He_3a/2b (IIIa/IIb)” value falls from 0.78 ratio to 0.68 ratio.

First: B9
Second: B10
The “He_3a/2b (IIIa/IIb)” value of the first is higher: 0.8 ratio for the first, 0.17 ratio for the second.

First: B11
Second: B12
The “He_3a/2b (IIIa/IIb)” value of the first is lower: 0.39 ratio for the first, 0.47 ratio for the second.

Compared with B13, B14 is higher in “He_3a/2b (IIIa/IIb)” value: 0.69 ratio for the first, 0.77 ratio for the second.

Compared with B15, B16 is lower in “He_3a/2b (IIIa/IIb)” value: 0.69 ratio for the first, 0.62 ratio for the second.
